Results taken from patent US6960429B2, “Inhibition of viral gene activities” (priority 1997, dated 2005).

Legend:
[1] = target: T1, NΔ360 (derivative of EBNA1) (Epstein-Barr virus, UniProt P03211); type: biochemical
T1 construct: NΔ360 and NΔ389 have a methionine followed by amino acids 361 and 390 to the carboxy-terminus, respectively; added initiator methionine (N); made in house; host or cells: E. coli
From the text: Two DNAs used as probes in this study were generated by endonuclease digestion of cloned DNAs. That with two EBNA1-binding sites is the 131 bp, SalI to PstI fragment derived from p880 (30); and that with five GAL4-binding sites is the 109 bp, HinDIII to XbaI fragment derived from G5BCAT (31). DNA fragments were purified from agarose gels. […] This method distinguishes less than two-fold differences in DNA concentrations. These DNAs were labeled with the Klenow fragment of DNA Polymerase 1 in the presence of dATP, dGTP, dTTP, and ^32P α-dCTP (Amersham), and precipitated three times to remove unincorporated label (32).
The derivatives of EBNA1 (bEBNA1, NΔ360, NΔ389) and the GAL4 derivatives (GAL4(1-94), GAL4(1-94)&54-89, GAL4(1-94)&331-361, GAL4(1-94)&372-391) used in this study were all produced and purified as previously described (28). Briefly, bEBNA1 lacks amino acids 2 through 7 and all but fifteen amino acids of the gly-gly-ala repeats and was expressed in SF21 cells (23). NΔ360 and NΔ389 lack the first 360 and 389 amino acids, respectively, and were expressed in E. coli. GAL4(1-94) contains amino acids 1 to 94 of the yeast transactivator GAL4 plus eight carboxy-terminal amino acids coded by the poly-cloning region. The fusions designated GAL4(1-94)&#—# contain the indicated residues from EBNA1 cloned in frame into the poly-cloning region. All derivatives and fragments of EBNA1 were derived from the B95-8 viral strain (33, 15).
A.A. 40-89 and A.A. 331-391 were generated by amplifying the fragment of EBNA1 encoding those amino acids with PCR primers containing SalI and XbaI sites at the 5′ ends. […] The sequence of both clones was verified using an ABI Prism automated sequencer (Applied BioSystems). Expression of the fusion proteins in BL21 bacteria containing a DE3 lysogen and carrying pLysS was done as previously described (28). […]
Gel shift assays were done as previously described (28). […] The percentage of DNA linked is determined by dividing the amount of linked DNA by the total amount of DNA in the lane. […]

[2] = target: bEBNA1 (derivative of EBNA1); type: biochemical, Epstein-Barr virus
Experimental: Two DNAs used as probes in this study were generated by endonuclease digestion of cloned DNAs. That with two EBNA1-binding sites is the 131 bp, SalI to PstI fragment derived from p880 (30); and that with five GAL4-binding sites is the 109 bp, HinDIII to XbaI fragment derived from G5BCAT (31). DNA fragments were purified from agarose gels. They were quantified by making serial dilutions in the presence of ethidium bromide (0.5 μg/mL) and comparing their intensities, when exposed to ultraviolet light, to that of similar dilutions of a standard DNA. This method distinguishes less than two-fold differences in DNA concentrations. These DNAs were labeled with the Klenow fragment of DNA Polymerase 1 in the presence of dATP, dGTP, dTTP, and ^32P α-dCTP (Amersham), and precipitated three times to remove unincorporated label (32).
The derivatives of EBNA1 (bEBNA1, NΔ360, NΔ389) and the GAL4 derivatives (GAL4(1-94), GAL4(1-94)&54-89, GAL4(1-94)&331-361, GAL4(1-94)&372-391) used in this study were all produced and purified as previously described (28). Briefly, bEBNA1 lacks amino acids 2 through 7 and all but fifteen amino acids of the gly-gly-ala repeats and was expressed in SF21 cells (23). […]
Gel shift assays were done as previously described (28). […] The percentage of DNA linked is determined by dividing the amount of linked DNA by the total amount of DNA in the lane.

T1 sequence (P03211 361-641, stated change not applied): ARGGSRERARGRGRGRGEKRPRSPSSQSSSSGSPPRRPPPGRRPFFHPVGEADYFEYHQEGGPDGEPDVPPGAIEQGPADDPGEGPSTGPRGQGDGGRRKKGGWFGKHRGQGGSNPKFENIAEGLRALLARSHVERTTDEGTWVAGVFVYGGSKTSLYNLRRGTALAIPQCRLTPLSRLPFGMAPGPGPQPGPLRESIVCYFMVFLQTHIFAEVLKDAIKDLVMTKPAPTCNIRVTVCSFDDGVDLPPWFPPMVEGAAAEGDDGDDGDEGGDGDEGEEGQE

B1: Rnase A: control protein (protein, UniProt P61823 27-150, looked up)
Ribonuclease pancreatic: KETAAAKFERQHMDSSTSAASSSNYCNQMMKSRNLTKDRCKPVNTFVHESLADVQAVCSQKNVACKNGQTNCYQSYSTMSITDCRETGSSKYPNCAYKTTQANKHIIVACEGNPYVPVHFDASV
B1 was tested. Which Ki ([1]; 6.5 nM dimers of NΔ360, 20 fmols DNA with two EBNA1-binding sites, Ki = concentration of competitor which inhibits linking to 50%, read-out: Ki against NΔ360) did it give?
Its Ki is 30 µM.

And the IC50 ([1]; DNAs with two EBNA1-binding sites, read-out: Concentration inhibiting linking by NΔ360 to 50%)?
The IC50 was 30 µM.

What about the “Amount required to reduce linking by 50% relative to A.A. 331-391” value ([1]; linking by NΔ360) of the same molecule?
The value was “Approximately 1000 fold”.

And the Ki ([2]; 6.5 nM dimers of bEBNA1, 20 fmols DNA with two EBNA1-binding sites, Ki = concentration of competitor which inhibits linking to 50%, read-out: Ki against bEBNA1)?
The Ki was greater than 42 µM.

And the “Sensitivity of bEBNA1-mediated linking to competitor” value ([2]; DNAs with two binding sites, range of concentrations tested)?
The value was “insensitive”.
